Test results: patent publication US20210139581A1 (Alector, published 2021)
Numbering of substitutions follows the chain as printed. Numbers in names are those of the source.

B1: AB-64.1.15 (antibody, V domains shown)
VH: QVQLVQSGAEVKKPGASVKISCKASGYTFTDYNLHWVRQAPGQGLEWIGFIYPSNVITGYAQKFQGRATLTVDNSASTAYMELSSLRSEDTAVYYCARSDVDYFDYWGQGTLLTVSS
VL: DIVLTQSPDSLAVSLGERATINCRASQSVSTSTYSYMHWYQQKPGQPPKLLIKYASNLESGVPDRFSGSGSGTDFTLTISSLQAEDVAVYYCQHSWEIPLTFGQGTKLEIK
notes: Variant of AB-64.1
B2: AB-64.1.14 (antibody, V domains shown)
VH: B1 VH with N74Q, A76T
VL: B1 VL
notes: Variant of AB-64.1
B3: AB-64.1.13 (antibody, V domains shown)
VH: B1 VH with N74T, A76T
VL: B1 VL
notes: Variant of AB-64.1
B4: AB-H2 (antibody, V domains shown)
VH: B1 VH with I20V, V56G, A68V, L70M, N74T, A76T, A79V, D100T, L113V
VL: DIQMTQSPSSLSASVGDRVTITCRASQSVSTSTYSYMHWYQQKPGKAPKLLIYYASNLESGVPSRFSGSGSGTDFTLTISSLQPEDFATYYCQHSWEIPLTFGQGTKLEIK
notes: Humanized variant of murine 2F5.1
B5: AB-64.6 (antibody, V domains shown)
VH: B1 VH with L34Y, V56G, A76T
VL: B1 VL with S28D, N57F
B6: AB-64.2 (antibody, V domains shown)
VH: B1 VH with V56G, A76T, D100T
VL: B1 VL with A25V, S28D
B7: AB-64.7 (antibody, V domains shown)
VH: B1 VH with L34Y, V56G, A76T
VL: B1 VL with S30G, E59N, W96E
B8: AB-64.4 (antibody, V domains shown)
VH: B1 VH with V56G, A76T
VL: B1 VL with S28D, N57Y, Q93E
B9: AB-64.5 (antibody, V domains shown)
VH: B1 VH with L34Y, V56G, Q65F, A76T
VL: B1 VL with S30G
B10: AB-64.8 (antibody, V domains shown)
VH: B1 VH with L34Y, V56G, G66H, A76T
VL: B1 VL with S28D
B11: AB-64.3 (antibody, V domains shown)
VH: B1 VH with V56G, Q62E, Q65E, A76T, D100F
VL: B1 VL with S28D, N57Y, Q93E
B12: AB-64.1 huIgG1 (antibody)
heavy: not shown
light: DIVLTQSPDSLAVSLGERATINCRASQSVSTSTYSYMHWYQQKPGQPPKLLIKYASNLESGVPDRFSGSGSGTDFTLTISSLQAEDVAVYYCQHSWEIPLTFGQGTKLEIKRTVAAPSVFIFPPSDEQLKSGTASVVCLLNNFYPREAKVQWKVDNALQSGNSQESVTEQDSKDSTYSLSSTLTLSKADYEKHKVYACEVTHQGLSSPVTKSFNRGEC
B13: AB-64.1 huIgG2 (antibody)
heavy: QVQLVQSGAEVKKPGASVKISCKASGYTFTDYNLHWVRQAPGQGLEWIGFIYPSNGITGYAQKFQGRATLTVDNSTSTAYMELSSLRSEDTAVYYCARSDVDYFDYWGQGTLLTVSSASTKGPSVFPLAPCSRSTSESTAALGCLVKDYFPEPVTVSWNSGALTSGVHTFPAVLQSSGLYSLSSVVTVPSSNFGTQTYTCNVDHKPSNTKVDKTVERKCCVECPPCPAPPVAGPSVFLFPPKPKDTLMISRTPEVTCVVVDVSHEDPEVQFNWYVDGVEVHNAKTKPREEQFNSTFRVVSVLTVVHQDWLNGKEYKCKVSNKGLPAPIEKTISKTKGQPREPQVYTLPPSREEMTKNQVSLTCLVKGFYPSDIAVEWESNGQPENNYKTTPPMLDSDGSFFLYSKLTVDKSRWQQGNVFSCSVMHEALHNHYTQKSLSLSPGK
light: B12 light
B14: AB-64.1 huIgG1 LALAPS (antibody)
heavy: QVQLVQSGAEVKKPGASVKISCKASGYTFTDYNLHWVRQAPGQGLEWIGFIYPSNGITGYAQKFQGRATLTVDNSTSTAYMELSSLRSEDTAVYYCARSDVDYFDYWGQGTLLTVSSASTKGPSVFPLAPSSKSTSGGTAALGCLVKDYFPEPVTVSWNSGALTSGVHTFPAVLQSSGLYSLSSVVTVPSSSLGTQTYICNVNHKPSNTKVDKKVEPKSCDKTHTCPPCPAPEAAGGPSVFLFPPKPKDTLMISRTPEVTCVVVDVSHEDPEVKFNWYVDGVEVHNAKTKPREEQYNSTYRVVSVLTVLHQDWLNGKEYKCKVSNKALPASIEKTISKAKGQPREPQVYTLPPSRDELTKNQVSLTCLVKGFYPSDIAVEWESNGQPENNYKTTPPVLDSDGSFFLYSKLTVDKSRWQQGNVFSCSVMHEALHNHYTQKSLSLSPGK
light: B12 light
B15: AB-64.1 huIgG1 SELF (antibody, V domains shown)
VH: B1 VH with V56G, A76T
VL: B1 VL
B16: AB-64.1 huIgG1 N297A (antibody, V domains shown)
VH: B1 VH with V56G, A76T
VL: B1 VL

molecular target: T1, human CD33 on primary human monocyte-derived dendritic cells (human, UniProt P20138 18-364); experiment: cell-based or functional assay
T1 sequence (P20138 18-364): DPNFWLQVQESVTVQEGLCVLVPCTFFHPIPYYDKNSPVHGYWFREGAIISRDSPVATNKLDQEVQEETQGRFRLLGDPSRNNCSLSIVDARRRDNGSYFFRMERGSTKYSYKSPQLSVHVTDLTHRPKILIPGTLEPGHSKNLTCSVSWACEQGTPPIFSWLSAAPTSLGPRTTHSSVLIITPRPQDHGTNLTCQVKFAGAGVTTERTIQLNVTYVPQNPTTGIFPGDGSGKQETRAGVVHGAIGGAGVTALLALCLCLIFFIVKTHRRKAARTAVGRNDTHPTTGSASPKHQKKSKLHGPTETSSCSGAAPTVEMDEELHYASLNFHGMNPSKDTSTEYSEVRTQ

Binder | Receptor downregulation (% remaining at 0.16 µg/mL antibody) [%]
B1 | 38.9
B2 | 38.4
B3 | 35.9

molecular target: T2, human CD33 (human, UniProt P20138 18-259, limits assumed); experiment: BLI (ForteBio), Fab 100 nM on immobilized CD33
T2 construct: Human CD33 immobilized on the BLI sensor tip or the BIAcore C1 chip; also called Siglec-3
Procedure: (§1) The affinities (KD) of the humanized antibodies for human CD33 were measured for each antibody by BioLayer Interferometry in a ForteBio assay according to standard techniques (Estep et al. (2013) MAbs 5(2): 270-8). […] The assay was carried out at room temperature.

T2 sequence (P20138 18-259 limits assumed): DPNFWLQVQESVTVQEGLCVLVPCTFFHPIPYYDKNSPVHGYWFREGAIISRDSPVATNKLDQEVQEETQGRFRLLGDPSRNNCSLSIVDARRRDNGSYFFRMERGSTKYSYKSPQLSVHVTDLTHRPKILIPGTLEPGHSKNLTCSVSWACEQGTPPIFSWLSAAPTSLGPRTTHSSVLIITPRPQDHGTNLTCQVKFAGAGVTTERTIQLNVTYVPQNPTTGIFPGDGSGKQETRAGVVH

Binder | Kd [nM]
B4 | 3.24

molecular target: T1, human CD33 on primary human …; experiment: cell-based or functional assay; remark: another data set of the same source

Binder | Maximal Downregulation (% CD33 remaining) [%] | Receptor downregulation (EC50) [nM]
B5 | 30.6 | 0.0113
B6 | 26.8 | 0.0166
B7 | 31.2 | 0.017

molecular target: T1, human CD33 on primary human …; experiment: cell-based or functional assay; remark: another data set of the same source

Binder | Receptor downregulation (EC50) [nM]
B4 | 0.0517

molecular target: T1, human CD33 on primary human …; experiment: cell-based or functional assay; remark: another data set of the same source

Binder | Receptor downregulation (EC50) [nM]
B8 | 0.0236
B9 | 0.0263
B5 | 0.034
B10 | 0.0272
B11 | 0.0257
B6 | 0.0311
B7 | 0.0306

molecular target: T2, human CD33; experiment: SPR (BIAcore), Fab over CD33 on C1 chip
Procedure: The affinity parameters for 10 of the 88 humanized antibodies (AB-H1, AB-H3, AB-H6, AB-H11, AB-H22, AB-H24, AB-H26, AB-H63, AB-H64, and AB-H71) were measured in a separate experiment by a more sensitive technique, surface plasmon resonance (BIAcore), and compared to Chimeric Ab and Chimeric Ab #2. BIAcore measurements were performed as follows: human CD33 was immobilized on the surface of a C1 chip, and Fabs were injected for 300 s to monitor association, followed by a 900 s flow in running buffer to monitor dissociation. The Fabs were measured at 5 concentrations: a high concentration of 27 nM and 3-fold serial dilutions.
In a separate experiment, as determined by the more sensitive BIAcore technique, affinity parameters of affinity matured antibodies derived from the humanized antibody AB-H64 were measured and were directly compared to that of the Chimeric Ab, according to the method described in Example 1 above.

Binder | Fold Change to AB-H64 [fold] | Fold Change to Chimeric Ab [fold] | Kd [nM] | koff [s⁻¹] | kon [M⁻¹ s⁻¹]
B8 | 586 | 443 | 0.00367 | 1.98e-05 | 5.4e+06
B9 | 214 | 162 | 0.0101 | 6.33e-05 | 6.3e+06
B5 | 341 | 258 | 0.0063 | 3.95e-05 | 6.26e+06
B10 | 321 | 242 | 0.00671 | 4.8e-05 | 7.15e+06
B11 | 401 | 303 | 0.00537 | 2.67e-05 | 4.98e+06
B6 | 46.9 | 35.5 | 0.0458 | 0.000137 | 3e+06
B7 | 216 | 163 | 0.00997 | 8.75e-05 | 8.78e+06

molecular target: T2, human CD33; experiment: BLI (ForteBio), Fab 100 nM on immobilized CD33; remark: another data set of the same source
Procedure: as §1
The affinities of AB-H64 and its variants (Table 5) for human CD33 were measured by Fortebio assay according to the method described in Example 1 above.

Binder | Fold affinity improvement over parental Ab (AB-H64) [fold] | Kd [nM]
B8 | 7.95 | 0.36
B9 | 7.76 | 0.369
B5 | 8.52 | 0.336
B10 | 10.3 | 0.277
B11 | 6.53 | 0.438
B6 | 3.64 | 0.786
B7 | 11.9 | 0.24

molecular target: T1, human CD33 on primary human …; experiment: cell-based or functional assay; remark: another data set of the same source

Binder | Maximal Downregulation (% CD33 remaining) [%] | Receptor downregulation (pM, EC50) [pM]
B12 | 17.5 | 36.2
B13 | 15.1 | 35.6
B14 | 39.4 | 57.1
B15 | 10.9 | 31.9
B16 | 41.3 | 29.3

molecular target: T2, human CD33; experiment: BLI (ForteBio), Fab 100 nM on immobilized CD33; remark: another data set of the same source
Procedure: as §1
The affinity parameters of two of the antibodies, 64.1.2 and 64.1.8, were measured in a separate experiment by BIAcore, where they were directly compared to the parental antibody, AB-64.1, the parental humanized antibody, AB-H64, and the Chimeric Ab.

Binder | Kd [nM]
B1 | 0.412
B2 | 0.743
B3 | 1.45
